Changes are numbered by the printed parent chain.
Experiments:
[1] = target: T1, ATHB17Δ113-V182A-Q185A-N186A (Arabidopsis thaliana, UniProt Q8S9N6 SEQ:1-162); assay: SPR; loses interaction with BS1
T1 chain: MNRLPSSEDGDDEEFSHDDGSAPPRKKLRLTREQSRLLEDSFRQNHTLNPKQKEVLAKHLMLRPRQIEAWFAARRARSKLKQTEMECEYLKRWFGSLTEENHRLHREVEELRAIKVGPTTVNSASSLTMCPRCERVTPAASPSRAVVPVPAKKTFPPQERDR
Excerpt: (§1) HD-Zip I and II proteins bind to similar cis elements (CAAT(N)ATTG) under in vitro conditions (Sessa et al., EMBO J 12:3507-3517, 1993); Meijer et al., Mol Gen Genet 263:12-21, 2000); Frank et al., Plant J Cell Molec Biol 15:413-421, 1998); Deng et al., Plant Mol Biol 49:601-610, 2002). HD-Zip II members bind preferentially to the pseudo-palindromic sequence CAAT(C/G)ATTG (SEQ ID NO:55) (Sessa et al., EMBO J 12:3507-3517, 1993), whereas members of the HD-Zip I subfamily bind preferentially to a pseudo-palindromic sequence that differs from that of HD-Zip II at the central nucleotide (CAAT(A/T)ATTG) (SEQ ID NO:56) (Ariel et al., Trends Plant Sci 12:419-426, 2007). The DNA-binding properties of ATHB17Δ113 was tested in vitro using a surface plasmon resonance (SPR) assay for both class I and class II recognition sequences. The oligonucleotides used in this assay were […] (Class II), […] (Class I), and […] (non consensus), where the pseudo-palindromic sequences flanked by four nucleotides at the 5′ end and 3′end of the oligo are underlined.
(§2) ATHB17 amino acid substitutions and domain deletions were generated by comparing the ATHB17 protein sequence with those of mammalian HD and other plant HD-Zip transcription factors. These variants were evaluated for their DNA binding properties using SPR on Biacore 2000 as described in Example 2.

ATHB17Δ113-Δ138-195 [2] = target: T2, ATHB17Δ113-Δ138-195 (Arabidopsis thaliana); assay: SPR; homeodomain deletion; similar results stated
T2 chain: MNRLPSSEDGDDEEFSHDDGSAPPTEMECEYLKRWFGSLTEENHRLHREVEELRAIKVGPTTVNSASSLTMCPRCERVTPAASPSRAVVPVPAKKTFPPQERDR
Excerpt: as §1, §2

ATHB17Δ113-R190K [3] = target: T3, ATHB17Δ113-R190K (Arabidopsis thaliana, UniProt Q8S9N6 SEQ:1-162, R190K (full-length numbering)); assay: SPR; no significant change vs parent; settings: chain copies: 2 (homodimer, inferred)
T3 sequence: T1 chain with A69V, A72Q, A73N, R77K

ATHB17Δ113 [4] = target: T4, ATHB17Δ113 (Arabidopsis thaliana, UniProt Q8S9N6 SEQ:1-162); assay: SPR; Biacore 2000; unit from p118; settings: chain copies: 2 (homodimer, inferred)
T4 chain: T1 chain with A69V, A72Q, A73N

ATHB17Δ113 [5] = target: T4, ATHB17Δ113; assay: SPR; random DNA did not interact with any protein tested; settings: chain copies: 2 (homodimer, inferred)
Excerpt: as §1, §2

ATHB17Δ113-C243S-C246S [6] = target: T5, ATHB17Δ113-C243S-C246S (Arabidopsis thaliana, UniProt Q8S9N6 SEQ:1-162); assay: SPR; random DNA; settings: chain copies: 2 (homodimer, inferred)
T5 chain: T1 chain with A69V, A72Q, A73N, C130S, C133S
Excerpt: as §1, §2

ATHB17Δ113-Δ138-195 [7] = target: T2, ATHB17Δ113-Δ138-195; assay: SPR; random DNA
Excerpt: as §1, §2

[8] = target: T1, ATHB17Δ113-V182A-Q185A-N186A; assay: SPR; random DNA
Excerpt: as §1, §2

ATHB17Δ113-W183F [9] = target: T6, ATHB17Δ113-W183F (Arabidopsis thaliana, UniProt Q8S9N6 SEQ:1-162); assay: SPR; random DNA; settings: chain copies: 2 (homodimer, inferred)
T6 chain: T1 chain with A69V, W70F, A72Q, A73N
Excerpt: as §1, §2

[10] = target: T7, ATHB17Δ113-C200A-C243S-C246S (Arabidopsis thaliana, UniProt Q8S9N6 SEQ:1-162); assay: SPR; random DNA
T7 chain: T1 chain with A69V, A72Q, A73N, C87A, C130S, C133S
Excerpt: as §1, §2

ATHB17Δ113-Δ194-224 [11] = target: T8, ATHB17Δ113-Δ194-224 (Arabidopsis thaliana); assay: SPR; random DNA
T8 chain: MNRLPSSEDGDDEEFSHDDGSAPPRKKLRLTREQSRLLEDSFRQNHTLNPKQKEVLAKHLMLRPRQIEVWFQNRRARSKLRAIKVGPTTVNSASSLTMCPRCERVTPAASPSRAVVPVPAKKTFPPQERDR
Excerpt: as §1, §2

ATHB17Δ113-C246S [12] = target: T9, ATHB17Δ113-C246S (Arabidopsis thaliana, UniProt Q8S9N6 SEQ:1-162); assay: SPR; random DNA; settings: chain copies: 2 (homodimer, inferred)
T9 chain: T1 chain with A69V, A72Q, A73N, C133S
Excerpt: as §1, §2

ATHB17Δ113-F155L [13] = target: T10, ATHB17Δ113-F155L (Arabidopsis thaliana, UniProt Q8S9N6 SEQ:1-162); assay: SPR; random DNA; settings: chain copies: 2 (homodimer, inferred)
T10 chain: T1 chain with A69V, W70F, A72Q, A73N
Excerpt: as §1, §2

ATHB17Δ113-C243S [14] = target: T11, ATHB17Δ113-C243S (Arabidopsis thaliana, UniProt Q8S9N6 SEQ:1-162); assay: SPR; random DNA; settings: chain copies: 2 (homodimer, inferred)
T11 chain: T1 chain with A69V, A72Q, A73N, C130S
Excerpt: as §1, §2

[15] = target: T12, ATHB17Δ113-T196A-L203A-L210A-L217A-L224A (Arabidopsis thaliana, UniProt Q8S9N6 SEQ:1-162); assay: SPR; random DNA
T12 chain: T1 chain with A69V, A72Q, A73N, T83A, L90A, L97A, L104A, L111A
Excerpt: as §1, §2

ATHB17Δ113-C243S-C246S [16] = target: T5, ATHB17Δ113-C243S-C246S; assay: SPR; settings: chain copies: 2 (homodimer, inferred)
Excerpt: as §1, §2

[17] = target: T7, ATHB17Δ113-C200A-C243S-C246S; assay: SPR
Excerpt: as §1, §2

ATHB17Δ113-C246S [18] = target: T9, ATHB17Δ113-C246S; assay: SPR; settings: chain copies: 2 (homodimer, inferred)
Excerpt: as §1, §2

ATHB17Δ113-F155L [19] = target: T10, ATHB17Δ113-F155L; assay: SPR; settings: chain copies: 2 (homodimer, inferred)
Excerpt: as §1, §2

ATHB17Δ113-C243S [20] = target: T11, ATHB17Δ113-C243S; assay: SPR; settings: chain copies: 2 (homodimer, inferred)
Excerpt: as §1, §2

[21] = target: T1, ATHB17Δ113-V182A-Q185A-N186A; assay: SPR; no binding within the concentration range used
Excerpt: as §1, §2

ATHB17Δ113-W183F [22] = target: T6, ATHB17Δ113-W183F; assay: SPR; asterisked in table; text says 11 uM, significantly reduced but not completely suppressed; settings: chain copies: 2 (homodimer, inferred)
Excerpt: as §1, §2

[23] = target: T12, ATHB17Δ113-T196A-L203A-L210A-L217A-L224A; assay: SPR; leucine zipper mutant
ATHB17Δ113 [24] = target: T4, ATHB17Δ113; assay: SPR; Biacore 2000; kon 42.3e5, koff 880.6e-4; settings: chain copies: 2 (homodimer, inferred)
Excerpt: as §1, §2

ATHB17Δ113-R190K [25] = target: T3, ATHB17Δ113-R190K; assay: SPR; reduced affinity to BS2; settings: chain copies: 2 (homodimer, inferred)
ATHB17Δ113-Δ138-195 [26] = target: T2, ATHB17Δ113-Δ138-195; assay: SPR; homeodomain deletion
Excerpt: as §1, §2

ATHB17Δ113-Δ194-224 [27] = target: T8, ATHB17Δ113-Δ194-224; assay: SPR; leucine zipper deletion
Excerpt: as §1, §2

B1: Class I oligo (BS1) (dsDNA)
DNA 1: CAGACAATTATTGCGGC
DNA 2: GCCGCAATAATTGTCTG
binding result [1]: no binding
binding result (ATHB17Δ113-Δ138-195 [2]): no binding
Kd (ATHB17Δ113-R190K [3]): 25.7 nM
Kd (ATHB17Δ113 [4]): 37.7 nM

B2: non consensus oligo (random DNA) (dsDNA)
DNA 1: CAGCTCAGTCTGACGGC
DNA 2: GCCGTCAGACTGAGCTG
binding result (ATHB17Δ113 [5]): no binding
binding result (ATHB17Δ113-C243S-C246S [6]): no binding
binding result (ATHB17Δ113-Δ138-195 [7]): no binding
binding result [8]: no binding
binding result (ATHB17Δ113-W183F [9]): no binding
binding result [10]: no binding
binding result (ATHB17Δ113-Δ194-224 [11]): no binding
binding result (ATHB17Δ113-C246S [12]): no binding
binding result (ATHB17Δ113-F155L [13]): no binding
binding result (ATHB17Δ113-C243S [14]): no binding
binding result [15]: no binding

B3: Class II oligo (BS2) (dsDNA)
DNA 1: CAGACAATCATTGCGGC
DNA 2: GCCGCAATGATTGTCTG
Kd (ATHB17Δ113-C243S-C246S [16]): 41.1 nM
binding result [17]: no binding
Kd (ATHB17Δ113-C246S [18]): 63.6 nM
Kd (ATHB17Δ113-F155L [19]): 3630 nM
Kd (ATHB17Δ113-C243S [20]): 82.2 nM
binding result [21]: no binding
Kd (ATHB17Δ113-W183F [22]): 11000 nM
binding result [23]: no binding
Kd (ATHB17Δ113 [24]): 20.4 nM
Kd (ATHB17Δ113-R190K [25]): 68.2 nM
binding result (ATHB17Δ113-Δ138-195 [26]): no binding
Kd (ATHB17Δ113-Δ194-224 [27]): 4800 nM
